From publication doi:10.1101/2020.01.05.895227

B1: Unmethylated 60 bp DNA (3 CG), Cy5 (dsDNA)
DNA 1: CATGGCCTAAGCCGGACTGAATGAGCAAGCTTCCGGAGAATTCTGCCGGACTGCAGATGC
DNA 2: GCATCTGCAGTCCGGCAGAATTCTCCGGAAGCTTGCTCATTCAGTCCGGCTTAGGCCATG
B2: Hemimethylated 60 bp DNA (3 CG), Cy5 (dsDNA)
DNA 1: CATGGCCTAAGCCGGACTGAATGAGCAAGCTTCCGGAGAATTCTGCCGGACTGCAGATGC
DNA 2: GCATCTGCAGTCCGGCAGAATTCTCCGGAAGCTTGCTCATTCAGTCCGGCTTAGGCCATG
modifications: 5mC at strand 1 positions 13, 34, 47
B3: Unmethylated 60 bp DNA, one CG, Cy5 (dsDNA)
DNA 1: CATGGCCTAAGCAGGACTGAATGAGCAAGCTTCCGGAGAATTCTGCAGGACTGCAGATGC
DNA 2: GCATCTGCAGTCCTGCAGAATTCTCCGGAAGCTTGCTCATTCAGTCCTGCTTAGGCCATG

Key:
Test in all cases: EMSA
[1] = target: T1, MBP-Dnmt5(345-747) (Cryptococcus neoformans, UniProt J9VI03 345-747)
T1 sequence: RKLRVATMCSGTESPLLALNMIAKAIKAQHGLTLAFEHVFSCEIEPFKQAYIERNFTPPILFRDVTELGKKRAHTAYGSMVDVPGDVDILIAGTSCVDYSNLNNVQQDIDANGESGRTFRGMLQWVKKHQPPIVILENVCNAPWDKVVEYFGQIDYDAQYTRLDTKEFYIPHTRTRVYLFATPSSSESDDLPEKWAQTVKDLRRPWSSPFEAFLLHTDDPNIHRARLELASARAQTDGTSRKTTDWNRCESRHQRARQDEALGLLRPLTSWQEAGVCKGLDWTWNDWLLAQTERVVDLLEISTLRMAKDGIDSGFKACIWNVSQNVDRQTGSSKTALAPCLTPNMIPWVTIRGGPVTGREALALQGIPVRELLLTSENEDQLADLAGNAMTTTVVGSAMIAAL

[2] = target: T2, Dnmt5 full-length (Cryptococcus neoformans, UniProt J9VI03 1-2377)
[3] = target: T3, MBP-Dnmt5(1-150, W87A, Y90A) (Cryptococcus neoformans, UniProt J9VI03 1-150, W87A;Y90A)
T3 sequence: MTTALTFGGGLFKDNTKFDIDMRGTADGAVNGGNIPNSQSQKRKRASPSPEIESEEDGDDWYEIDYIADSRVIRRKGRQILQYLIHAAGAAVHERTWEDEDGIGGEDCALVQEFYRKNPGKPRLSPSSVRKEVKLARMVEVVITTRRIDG

[4] = target: T2, Dnmt5 full-length; remark: listed apart in the source

Binder | Kd [1] [nM] | Kd [2] [nM] | binding result [3] | binding signal [4]
B1 | 7 ± 3 | 20 ± 5 | – | –
B2 | 6 ± 2 | < 1 | no binding | –
B3 | – | – | – | 1 reference; abasic DNA binds 5-fold tighter
